This experiment deals with T1, human MSR1 (human, UniProt P21757 1-451).
T1 sequence (looked up): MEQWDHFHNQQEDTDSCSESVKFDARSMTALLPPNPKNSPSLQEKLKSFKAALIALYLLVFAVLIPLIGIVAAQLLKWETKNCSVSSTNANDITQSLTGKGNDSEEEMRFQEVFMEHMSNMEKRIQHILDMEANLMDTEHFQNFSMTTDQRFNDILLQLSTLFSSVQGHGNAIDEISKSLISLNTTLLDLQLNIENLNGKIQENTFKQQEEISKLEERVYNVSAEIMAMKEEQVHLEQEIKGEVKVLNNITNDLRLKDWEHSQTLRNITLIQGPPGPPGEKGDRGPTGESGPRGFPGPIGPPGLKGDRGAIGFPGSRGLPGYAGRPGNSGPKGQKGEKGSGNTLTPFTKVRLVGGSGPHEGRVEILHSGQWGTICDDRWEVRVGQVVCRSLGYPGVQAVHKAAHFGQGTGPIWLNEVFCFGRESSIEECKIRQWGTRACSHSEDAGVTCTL
The experiment in a line: cell-based or functional assay.

Values joined by “and” are separate entries in the source; they are usually repeats but may differ in a detail not shown here. Equal entries are not always repeated.

Turning to isotype control ADCs (antibody), the EC50, GR luciferase reporter activity in HEK293/GRLuc/MSR1 cells was > 35 nM and the signal to noise (S/N), GR luciferase reporter in HEK293/GRLuc/MSR1 cells was in the range of 1.9 to 154.

Turning to isotype control ncADCs (antibody), the EC50, GR luciferase reporter activity in HEK293/GRLuc/MSR1 cells was > 50 nM and the signal to noise (S/N), GR luciferase reporter in HEK293/GRLuc/MSR1 cells lay within 3.8 to 148.

B1: anti-MSR1 (H1H21234N-N297Q) ADCs (antibody, V domains shown)
VH: QVQLQESGPGLVKPSETLSLTCTVTGGSISRNYWSWIRQPPGKGLEWIGYIYYSGSIDYNPSLKSRVTISVDTSKNQFSLKLSSMTAADTAVYYCARDRWNWKYGMDVWGQGTTVIVSS
VL: EIVLTQSPGTLSLSPGERATLSCRASQTVRNNYLAWYHQKPGQAPRLLIYGASSRATGIPDRFSGSGSGTDFTLTISRLEPEDFTVYYCHQYGNSPWTFGQGTKMEIKR
modifications: linker-payload on glutamines Q295 and Q297 (N297Q, EU numbering) of the heavy chain constant region; four DAR
Turning to B1, the “EC50, GR luciferase reporter activity in HEK293/GRLuc/MSR1 cells” value is 0.636 nM and 3.96 nM.

For the origin of these results see patent WO2020146541A2 (dated 2020).
